# Measurements published in patent US20040171074A1, “Structures of substrate binding pockets of SCF complexes” (MOUNT SINAI HOSPITAL, priority 2002, published 2004).
# Substitutions are numbered along the chain they refer to. In names and notes the source's numbering stands. Entries after “also recorded” stand apart in the source; their conditions may differ. Non-standard residues stand in square brackets, D forms with d. pT = C[C@@H](OP(=O)(O)O)[C@H](N)C(=O)O
# T1: Cdc4 (Saccharomyces cerevisiae, UniProt P07834)
# T1 sequence (P07834 1-779): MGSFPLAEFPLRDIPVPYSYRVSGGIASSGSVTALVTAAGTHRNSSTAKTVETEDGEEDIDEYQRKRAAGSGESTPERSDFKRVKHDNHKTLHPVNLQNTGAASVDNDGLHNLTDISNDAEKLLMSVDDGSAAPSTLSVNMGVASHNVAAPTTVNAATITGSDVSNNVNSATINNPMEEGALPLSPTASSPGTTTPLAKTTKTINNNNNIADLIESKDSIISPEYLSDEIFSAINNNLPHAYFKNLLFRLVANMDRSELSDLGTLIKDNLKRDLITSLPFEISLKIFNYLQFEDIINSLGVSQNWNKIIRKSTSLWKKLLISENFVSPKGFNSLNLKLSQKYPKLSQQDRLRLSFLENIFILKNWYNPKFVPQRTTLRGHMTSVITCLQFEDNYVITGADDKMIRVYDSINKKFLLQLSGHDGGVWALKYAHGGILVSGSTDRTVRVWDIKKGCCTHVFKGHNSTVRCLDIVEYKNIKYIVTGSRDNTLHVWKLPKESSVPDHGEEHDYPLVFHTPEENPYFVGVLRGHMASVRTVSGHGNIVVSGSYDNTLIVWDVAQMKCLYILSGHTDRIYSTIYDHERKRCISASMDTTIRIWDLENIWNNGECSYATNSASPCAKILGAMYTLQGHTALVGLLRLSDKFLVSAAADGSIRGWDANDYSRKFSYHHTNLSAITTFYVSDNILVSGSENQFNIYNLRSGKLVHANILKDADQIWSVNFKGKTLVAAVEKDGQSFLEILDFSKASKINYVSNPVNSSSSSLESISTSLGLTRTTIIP
# B1: R534A: mutant cdc4 polypeptide (protein)
# chain: T1 sequence (P07834 1-779) with R534A
# B2: W426A: mutant cdc4 polypeptide (protein)
# chain: T1 sequence (P07834 1-779) with W426A
# B3: W717N/V384N: double mutant cdc4 polypeptide compromised for selection at P−1 (protein)
# chain: T1 sequence (P07834 1-779) with V384N, W717N
# Columns and labels:
# Cdc4 = biological target: T1, Cdc4; conditions: cyclin E derived nine-residue CPD phosphopeptide binding Cdc4 (Nash et al., 2001); cited from earlier work
# phospho-Sic1 = test: P-Sic1 pull down: in vitro capture of phospho-Sic1 on immobilized wild type or mutant Cdc4-GST-Skp1, anti-Sic1 immunoblot; assay type: binding, yeast; conditions: Sic1 phosphorylated with Cln2-Cdc28, captured onto GST-Skp1/Cdc4 resin, anti-Sic1 detection
# How it was run: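 Bacterial His6-Sic1 phosphorylated by Cln2-Cdc28 from Sf9 cells; 0.5 μg phospho-Sic1 incubated with 1 μg immobilized wild-type or mutant Cdc4(263-744)-GST-Skp1 at 4° C for 1 h, washed four times. Bound Sic1 detected by anti-Sic1 immunoblot after SDS-PAGE.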
# Skp1 = biological target: T2, Skp1 (Saccharomyces cerevisiae, UniProt P52286); test: Skp1 binding in vitro (pull down); design: species or system yeast
# T2 construct: GST (N); made in house; host or cells: bacteria
# From the text: In order to probe the functional importance of amino acid residues on the highly conserved peptide binding surface, a panel of Cdc4 mutants (both single and double mutant) were generated and tested each for its ability to bind phospho Sic1 and Skp1 in vitro using a pull down assay and for its ability to substitute for wt-cdc4 in vivo using a cell viability assay. Of 12 single site mutants tested, only Arg 467. Arg485Ala Arg534Ala, and Trp 426 abolished both cell viability in vivo and phosphoSic1 binding in vitro. Together, these residues compose most of the interaction surface with the pThr, Pro CPD core. […] Presumably in the context of the full SCF complex in vivo this mutant is sufficiently well behaved to bind phospho Sic1.
# cdc4Δ strain = test: plasmid shuffle assay: complementation of a cdc4Δ strain by CDC4 alleles; assay type: cell-based, yeast; conditions: viability of cdc4Δ strain on 5-FOA, 2 days at 30° C.
# How it was run: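 Mutant CDC4 alleles on TRP1 CEN plasmids were shuffled into cdc4Δ strain MT 1259 carrying wild-type CDC4 on a URA3 plasmid, with growth on 5-FOA for 2 days at 30° C. Survivors were transformed with GAL1-SIC1 or phosphosite mutants and plated on glucose or galactose, 2 days at 30° C.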
# [1] = test system: cdc4Δ strain overexpressing SIC1; test: sensitivity to SIC1 dosage: GAL1-SIC1 overexpression in strains bearing CDC4 alleles; assay type: cell-based, yeast; conditions: galactose, 2 days at 30° C.
# How it was run: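 SIC1 dosage sensitivity: cdc4Δ strains carrying CDC4 mutant alleles (after plasmid shuffle) transformed with GAL1-SIC1 or GAL1-SIC1^T33V (also T45A), plated on glucose versus galactose medium for 2 days at 30 °C. Growth on galactose scored as tolerance of SIC1 overexpression.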
# phospho-Sic1 isoforms = test: IEF-2D gel analysis of Sic1 phospho-isoforms captured by wild type or mutant Cdc4-GST-Skp1; assay type: binding, yeast; conditions: pool of Sic1 phosphorylated on 1 to 9 sites
# Procedure: Bacterially expressed His6-Sic1 was phosphorylated with Cln2-Cdc28 kinase purified from baculovirus infected Sf9 cells as described before (Nature paper). 1 ug of WT or mutant Cdc4-GST-Skp1, immoblized on GSH-Sepharose resin, was incubated with 0.5 ug phospho-Sic1 at 4 C for 1 h and washed 4 times. Captured complexes were resolved on SDS-PAGE and Sic1 visualized by anti-Sic1 Western blotting and ECL. For IEF-2D analysis, several Sic1 phosphorylation reactions were carried out for different time periods to obtain a spectrum of Sic1 that were phosphorylated at different numbers of its nine CDK sites. This pool of phospho-Sic1 (2.5 ug) was incubated with 5 μg of WT or mutant Cdc4-GST-Skp1 as described above. Different phosphorylation states of Sic1 were separated by denaturing isoelectric focusing (IEF)-2D gel electrophoresis and visualized by anti-Sic1 Western blotting and ECL. IEF was performed using pH 3-10NL Immobiline gel strips and IPGphore IEF system (Amersham pharmacia).
# Cdc4 functional assays. CDC4 mutant alleles were assessed for complementation of a cdc4A strain in a plasmid shuffle assay (Nash et al., 2001). Sensitivity to SIC1 dosage was determined by transformation with pMT837 (GAL1-SIC1) or pMT767 (GAL1-SIC1^T33V) and plating on glucose medium or galactose medium. […]
# T2 sequence (P52286 2-194 limits assumed): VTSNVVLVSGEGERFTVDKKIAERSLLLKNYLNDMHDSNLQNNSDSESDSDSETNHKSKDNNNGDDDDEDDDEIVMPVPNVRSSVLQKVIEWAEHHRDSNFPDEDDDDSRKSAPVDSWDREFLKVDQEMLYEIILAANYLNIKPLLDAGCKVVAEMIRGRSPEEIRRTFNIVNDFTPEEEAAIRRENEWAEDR
molecule,measurement,setting,value
Ac-GLL[pT]PPQSG-NH2 [CPD phosphopeptide],Kd,Cdc4,1000 nM
B1,P-Sic1 pull down,phospho-Sic1,no bind
same,P-Sic1 pull down,phospho-Sic1; listed as Arg534Ala,abolished; also recorded: unable to bind
same,Skp1 binding,Skp1,fully competent
same,shuffle,cdc4Δ strain,dead
same,shuffle,cdc4Δ strain; listed as Arg534Ala,abolished; also recorded: unable
B2,P-Sic1 pull down,phospho-Sic1,no bind
same,P-Sic1 pull down,phospho-Sic1; listed as Trp 426,abolished
same,P-Sic1 pull down,phospho-Sic1; listed as Trp426Ala,unable to bind
same,Skp1 binding,Skp1,fully competent
same,shuffle,cdc4Δ strain,dead
same,shuffle,cdc4Δ strain; listed as Trp 426,abolished
same,shuffle,cdc4Δ strain; listed as Trp426Ala,unable
B3,P-Sic1 pull down,phospho-Sic1,bind
same,P-Sic1 pull down,phospho-Sic1; listed as V384N/W717N,fully competent
same,gal Sic1T33V,[1]; GAL1-SIC1 T33V (partially stabilized Sic1),dead
same,gal Sic1T45A,[1]; GAL1-SIC1 T45A,dead
same,gal Sic1 wt,[1]; GAL1-SIC1 wild type,alive
same,Sic1 phospho-isoforms captured (number of phosphorylated sites),phospho-Sic1 isoforms,as few as four
same,shuffle,cdc4Δ strain,alive
same,shuffle,cdc4Δ strain; listed as V384N/W717N,viable
